Target: T1, Mouse CD93 on cells (mouse CD93 expressing CHO cells; mouse CD93 expressing HEK cells) (mouse, UniProt O89103 23-644)
T1 construct: whole, on cells; also called mCD93 HEK; CD93-HEK cells
T1 sequence (looked up): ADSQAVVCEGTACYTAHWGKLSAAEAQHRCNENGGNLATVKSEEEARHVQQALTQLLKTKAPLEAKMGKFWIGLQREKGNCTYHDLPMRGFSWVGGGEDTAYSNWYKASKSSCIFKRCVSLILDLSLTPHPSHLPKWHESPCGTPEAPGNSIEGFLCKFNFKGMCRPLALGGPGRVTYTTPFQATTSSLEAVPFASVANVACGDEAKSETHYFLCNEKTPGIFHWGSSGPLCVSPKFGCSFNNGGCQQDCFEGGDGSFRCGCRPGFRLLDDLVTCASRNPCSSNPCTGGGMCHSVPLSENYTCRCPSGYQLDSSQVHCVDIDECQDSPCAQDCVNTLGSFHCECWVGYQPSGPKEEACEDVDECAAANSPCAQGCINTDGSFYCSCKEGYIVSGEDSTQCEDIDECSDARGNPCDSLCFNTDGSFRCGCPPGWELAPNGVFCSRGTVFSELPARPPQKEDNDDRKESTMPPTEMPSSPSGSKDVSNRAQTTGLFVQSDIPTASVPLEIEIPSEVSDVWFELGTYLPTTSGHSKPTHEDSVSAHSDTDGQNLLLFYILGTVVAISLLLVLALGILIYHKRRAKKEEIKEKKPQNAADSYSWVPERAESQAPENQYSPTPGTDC
Assay: summary table; method and form of mouse CD93 not given

B1: 16E4 (hybridoma) (antibody, IgG2a, V domains shown)
VH: QVQLQQPGAELVKPGASVKLSCKASGYTFTSYWMHWVKQRPGQGLEWIGEIDPSASYTYYNQKFKGKATLTVDKSSSTAYMQLSSLTSEDSAVYYCARSVYYGNKYFDVWGAGTTVTVSS
VL: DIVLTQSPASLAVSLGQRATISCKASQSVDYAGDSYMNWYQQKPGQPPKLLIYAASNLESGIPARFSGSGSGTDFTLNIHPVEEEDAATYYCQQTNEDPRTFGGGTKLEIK
notes: also called 16E4 mAb; 16E4 mIgG2a
binding result: no binding

— patent US20230365705A1 (DYNAMICURE BIOTECHNOLOGY, published 2023)
